Results taken from paper PMC4650570 (Cell Research, 2014).

Experiments:
[1] = target: Clostridium difficile toxin B, His-tagged (TcdB-His) (Clostridium difficile, UniProt P18177 1-2366); experiment: SPR
GST-TcdB-C(1500-2366) = GST-TcdB-C(1500-2366) (Clostridium difficile, UniProt P18177 1500-2366); experiment: pull-down
Chain of GST-TcdB-C(1500-2366) (P18177 1500-2366): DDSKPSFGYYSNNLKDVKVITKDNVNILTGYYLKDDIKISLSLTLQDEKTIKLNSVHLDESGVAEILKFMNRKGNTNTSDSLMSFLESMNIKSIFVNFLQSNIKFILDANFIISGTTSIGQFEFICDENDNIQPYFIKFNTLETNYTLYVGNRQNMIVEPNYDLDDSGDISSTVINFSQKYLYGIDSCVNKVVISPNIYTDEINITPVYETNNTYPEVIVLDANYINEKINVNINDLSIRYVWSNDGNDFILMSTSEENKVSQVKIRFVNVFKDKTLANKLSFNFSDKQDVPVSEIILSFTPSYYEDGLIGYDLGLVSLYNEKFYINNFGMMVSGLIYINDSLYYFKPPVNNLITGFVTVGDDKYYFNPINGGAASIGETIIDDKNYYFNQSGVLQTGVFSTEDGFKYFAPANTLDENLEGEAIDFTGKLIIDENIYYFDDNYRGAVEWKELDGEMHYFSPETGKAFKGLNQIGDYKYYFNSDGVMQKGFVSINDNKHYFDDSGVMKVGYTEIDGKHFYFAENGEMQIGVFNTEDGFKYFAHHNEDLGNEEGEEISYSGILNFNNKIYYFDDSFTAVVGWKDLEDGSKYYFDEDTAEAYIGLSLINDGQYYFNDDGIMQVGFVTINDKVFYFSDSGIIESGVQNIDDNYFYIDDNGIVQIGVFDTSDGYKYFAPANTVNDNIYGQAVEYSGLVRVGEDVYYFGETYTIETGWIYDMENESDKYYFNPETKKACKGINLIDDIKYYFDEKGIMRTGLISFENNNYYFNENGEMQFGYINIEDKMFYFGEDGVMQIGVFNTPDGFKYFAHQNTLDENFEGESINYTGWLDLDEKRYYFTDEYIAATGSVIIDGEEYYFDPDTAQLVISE

Chain of Clostridium difficile toxin B, His-tagged (TcdB-His) (P18177 whole entry): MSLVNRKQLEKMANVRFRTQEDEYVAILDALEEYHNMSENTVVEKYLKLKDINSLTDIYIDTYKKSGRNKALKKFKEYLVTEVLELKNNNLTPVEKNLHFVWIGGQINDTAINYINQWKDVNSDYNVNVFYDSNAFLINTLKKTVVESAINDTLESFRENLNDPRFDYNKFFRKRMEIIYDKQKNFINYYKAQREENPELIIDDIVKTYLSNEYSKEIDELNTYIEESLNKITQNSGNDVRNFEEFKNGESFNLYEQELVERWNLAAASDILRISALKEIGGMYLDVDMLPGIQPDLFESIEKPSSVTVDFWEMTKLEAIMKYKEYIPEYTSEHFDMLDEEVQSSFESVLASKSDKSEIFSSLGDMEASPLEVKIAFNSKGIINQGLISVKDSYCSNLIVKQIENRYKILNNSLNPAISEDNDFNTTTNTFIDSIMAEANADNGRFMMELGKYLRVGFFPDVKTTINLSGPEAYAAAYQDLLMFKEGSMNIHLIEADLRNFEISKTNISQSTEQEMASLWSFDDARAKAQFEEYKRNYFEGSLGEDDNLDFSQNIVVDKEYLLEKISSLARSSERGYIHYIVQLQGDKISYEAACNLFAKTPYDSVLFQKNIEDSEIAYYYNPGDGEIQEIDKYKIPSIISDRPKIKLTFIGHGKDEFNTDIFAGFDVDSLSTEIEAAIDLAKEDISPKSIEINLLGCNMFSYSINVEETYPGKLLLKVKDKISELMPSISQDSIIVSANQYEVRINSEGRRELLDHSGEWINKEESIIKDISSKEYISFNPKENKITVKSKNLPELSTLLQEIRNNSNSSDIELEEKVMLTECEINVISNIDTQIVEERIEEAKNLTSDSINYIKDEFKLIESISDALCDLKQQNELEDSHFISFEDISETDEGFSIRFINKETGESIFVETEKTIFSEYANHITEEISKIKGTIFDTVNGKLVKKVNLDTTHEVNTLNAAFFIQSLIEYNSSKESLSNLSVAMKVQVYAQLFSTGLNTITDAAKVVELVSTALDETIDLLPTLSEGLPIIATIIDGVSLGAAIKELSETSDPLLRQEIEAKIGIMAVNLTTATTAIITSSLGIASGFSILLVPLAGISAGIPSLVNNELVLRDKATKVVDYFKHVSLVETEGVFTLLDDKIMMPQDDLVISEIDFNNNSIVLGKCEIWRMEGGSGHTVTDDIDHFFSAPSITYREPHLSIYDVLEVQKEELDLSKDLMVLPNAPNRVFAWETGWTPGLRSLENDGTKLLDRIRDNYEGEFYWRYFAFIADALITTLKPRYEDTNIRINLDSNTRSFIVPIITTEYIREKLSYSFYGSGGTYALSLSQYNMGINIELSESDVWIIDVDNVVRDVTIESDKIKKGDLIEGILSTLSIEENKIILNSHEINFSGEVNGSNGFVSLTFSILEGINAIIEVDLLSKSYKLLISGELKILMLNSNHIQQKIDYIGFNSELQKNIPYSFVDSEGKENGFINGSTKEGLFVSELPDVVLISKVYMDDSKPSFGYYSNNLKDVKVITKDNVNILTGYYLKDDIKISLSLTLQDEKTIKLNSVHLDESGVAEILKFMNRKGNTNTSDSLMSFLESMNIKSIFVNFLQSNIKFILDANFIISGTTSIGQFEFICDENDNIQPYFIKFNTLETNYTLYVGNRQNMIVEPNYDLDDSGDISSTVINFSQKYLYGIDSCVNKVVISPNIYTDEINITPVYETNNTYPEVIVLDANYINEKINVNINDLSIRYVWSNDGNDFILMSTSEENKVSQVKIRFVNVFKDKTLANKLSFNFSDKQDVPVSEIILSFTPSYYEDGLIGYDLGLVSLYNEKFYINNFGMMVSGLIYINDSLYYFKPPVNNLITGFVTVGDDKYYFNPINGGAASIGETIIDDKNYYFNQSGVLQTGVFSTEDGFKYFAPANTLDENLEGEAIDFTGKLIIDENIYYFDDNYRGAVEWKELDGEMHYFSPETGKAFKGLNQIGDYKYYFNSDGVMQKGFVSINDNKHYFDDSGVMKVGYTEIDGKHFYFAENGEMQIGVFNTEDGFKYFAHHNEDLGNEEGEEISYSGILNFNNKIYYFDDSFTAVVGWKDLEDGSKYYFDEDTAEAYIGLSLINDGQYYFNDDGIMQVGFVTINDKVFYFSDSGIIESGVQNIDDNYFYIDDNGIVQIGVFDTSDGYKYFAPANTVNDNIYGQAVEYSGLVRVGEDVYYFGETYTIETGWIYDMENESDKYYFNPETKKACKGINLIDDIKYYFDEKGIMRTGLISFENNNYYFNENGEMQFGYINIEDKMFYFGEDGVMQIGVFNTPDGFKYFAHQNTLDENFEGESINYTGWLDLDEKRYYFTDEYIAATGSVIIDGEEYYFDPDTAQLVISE

B1: CSPG4-N(401-560)-Fc (Fc fusion)
chain: LAPEAWPAMELPEPCVPEPGLPPVFANFTQLLTISPLVVAEGGTAWLEWRHVQPTLDLMEAELRKSQVLFSVTRGARHGELELDIPGAQARKMFTLLDVVNRKARFIHDGSEDTSDQLVLEVSVTARVPMPSCLRRGQTYLLPIQVNPVNDPPHIIFPHG
[1]
  Kd: 28.9 ± 0.7 nM

B2: CSPG4-N(30-640)-Fc (Fc fusion)
chain: ASFFGENHLEVPVATALTDIDLQLQFSTSQPEALLLLAAGPADHLLLQLYSGRLQVRLVLGQEELRLQTPAETLLSDSIPHTVVLTVVEGWATLSVDGFLNASSAVPGAPLEVPYGLFVGGTGTLGLPYLRGTSRPLRGCLHAATLNGRSLLRPLTPDVHEGCAEEFSASDDVALGFSGPHSLAAFPAWGTQDEGTLEFTLTTQSRQAPLAFQAGGRRGDFIYVDIFEGHLRAVVEKGQGTVLLHNSVPVADGQPHEVSVHINAHRLEISVDQYPTHTSNRGVLSYLEPRGSLLLGGLDAEASRHLQEHRLGLTPEATNASLLGCMEDLSVNGQRRGLREALLTRNMAAGCRLEEEEYEDDAYGHYEAFSTLAPEAWPAMELPEPCVPEPGLPPVFANFTQLLTISPLVVAEGGTAWLEWRHVQPTLDLMEAELRKSQVLFSVTRGARHGELELDIPGAQARKMFTLLDVVNRKARFIHDGSEDTSDQLVLEVSVTARVPMPSCLRRGQTYLLPIQVNPVNDPPHIIFPHGSLMVILEHTQKPLGPEVFQAYDPDSACEGLTFQVLGTSSGLPVERRDQPGEPATEFSCRELEAGSLVYVHRGGPAQDLTF
GST-TcdB-C(1500-2366)
  binding result: binds
